Results from patent US10836815B2, “Generation and comparative kinetic analysis of new glycosynthase mutants from Streptococcus pyogenes endoglycosidases for antibody glycoengineering” (UNIVERSITY OF MARYLAND, COLLEGE PARK, priority 2017, dated 2020).

B1: Endo-S D233A (protein)
chain: MDKHLLVKRTLGCVCAATLMGAALATHHDSLNTVKAEEKTVQVQKGLPSIDSLHYLSENSKKEFKEELSKAGQESQKVKEILAKAQQADKQAQELAKMKIPEKIPMKPLHGPLYGGYFRTWHDKTSDPTEKDKVNSMGELPKEVDLAFIFHDWTKDYSLFWKELATKHVPKLNKQGTRVIRTIPWRFLAGGDNSGIAEDTSKYPNTPEGNKALAKAIVDEYVYKYNLDGLDVAVEHDSIPKVDKKEDTAGVERSIQVFEEIGKLIGPKGVDKSRLFIMDSTYMADKNPLIERGAPYINLLLVQVYGSQGEKGGWEPVSNRPEKTMEERWQGYSKYIRPEQYMIGFSFYEENAQEGNLWYDINSRKDEDKANGINTDITGTRAERYARWQPKTGGVKGGIFSYAIDRDGVAHQPKKYAKQKEFKDATDNIFHSDYSVSKALKTVMLKDKSYDLIDEKDFPDKALREAVMAQVGTRKGDLERFNGTLRLDNPAIQSLEGLNKFKKLAQLDLIGLSRITKLDRSVLPANMKPGKDTLETVLETYKKDNKEEPATIPPVSLKVSGLTGLKELDLSGFDRETLAGLDAATLTSLEKVDISGNKLDLAPGTENRQIFDTMLSTISNHVGSNEQTVKFDKQKPTGHYPDTYGKTSLRLPVANEKVDLQSQLLFGTVTNQGTLINSEADYKAYQNHKIAGRSFVDSNYHYNNFKVSYENYTVKVTDSTLGTTTDKTLATDKEETYKVDFFSPADKTKAVHTAKVIVGDEKTMMVNLAEGATVIGGSADPVNARKVFDGQLGSETDNISLGWDSKQSIIFKLKEDGLIKHWRFFNDSARNPETTNKPIQEASLQIFNIKDYNLDNLLENPNKFDDEKYWITVDTYSAQGERATAFSNTLNNITSKYWRVVFDTKGDRYSSPVVPELQILGYPLPNADTIMKTVTTAKELSQQKDKFSQKMLDELKIKEMALETSLNSKIFDVTAINANAGVLKDCIEKRQLLKK
B2: Endo-S D233Q (protein)
chain: MDKHLLVKRTLGCVCAATLMGAALATHHDSLNTVKAEEKTVQVQKGLPSIDSLHYLSENSKKEFKEELSKAGQESQKVKEILAKAQQADKQAQELAKMKIPEKIPMKPLHGPLYGGYFRTWHDKTSDPTEKDKVNSMGELPKEVDLAFIFHDWTKDYSLFWKELATKHVPKLNKQGTRVIRTIPWRFLAGGDNSGIAEDTSKYPNTPEGNKALAKAIVDEYVYKYNLDGLDVQVEHDSIPKVDKKEDTAGVERSIQVFEEIGKLIGPKGVDKSRLFIMDSTYMADKNPLIERGAPYINLLLVQVYGSQGEKGGWEPVSNRPEKTMEERWQGYSKYIRPEQYMIGFSFYEENAQEGNLWYDINSRKDEDKANGINTDITGTRAERYARWQPKTGGVKGGIFSYAIDRDGVAHQPKKYAKQKEFKDATDNIFHSDYSVSKALKTVMLKDKSYDLIDEKDFPDKALREAVMAQVGTRKGDLERFNGTLRLDNPAIQSLEGLNKFKKLAQLDLIGLSRITKLDRSVLPANMKPGKDTLETVLETYKKDNKEEPATIPPVSLKVSGLTGLKELDLSGFDRETLAGLDAATLTSLEKVDISGNKLDLAPGTENRQIFDTMLSTISNHVGSNEQTVKFDKQKPTGHYPDTYGKTSLRLPVANEKVDLQSQLLFGTVTNQGTLINSEADYKAYQNHKIAGRSFVDSNYHYNNFKVSYENYTVKVTDSTLGTTTDKTLATDKEETYKVDFFSPADKTKAVHTAKVIVGDEKTMMVNLAEGATVIGGSADPVNARKVFDGQLGSETDNISLGWDSKQSIIFKLKEDGLIKHWRFFNDSARNPETTNKPIQEASLQIFNIKDYNLDNLLENPNKFDDEKYWITVDTYSAQGERATAFSNTLNNITSKYWRVVFDTKGDRYSSPVVPELQILGYPLPNADTIMKTVTTAKELSQQKDKFSQKMLDELKIKEMALETSLNSKIFDVTAINANAGVLKDCIEKRQLLKK

What was measured:
Format in all cases: biochemical
[1] = Kinetic measurements (KM, Vmax) of Endo-S/Endo-S2 mutants for SCT-Oxa; details: Endo-S mutants, donor substrate SCT-Oxa, PBS pH 7.4, 30° C.
Experimental: Using a sialylated glycan oxazoline (SCT-Oxa) as the donor and the deglycosylated rituximab as the acceptor substrate, we measured the kinetic parameters of the enzyme catalyzed glycosylation were measured. A mass spectrometry-based approach with an internal standard was used to estimate the product formation.^31-33.
(§1) Peptide-N-Glycosidase F (PNGase F) treated rituximab was used as the internal standard due to its similarities to the deglycosylated and transferred product in terms of their molecular structures and ionization efficiencies. After PNGase F treatment, a mutation will be introduced into the amino acid sequence of rituximab so the product antibody will not interfere with the reaction via re-glycosylation^35. A standard product S2G2F-rituximab was synthesized following the previously reported procedure^29. […] Serial dilutions containing a gradient of S2G2F-rituximab (0, 0.25, 0.5, 0.75, 1.0, 1.25 and 1.5 μM) were mixed with a stock solution containing 0.67 μM internal standard. These mixed sample solutions were quantified by selected ion monitoring (SIM) to calculate the single-point normalization factor^31. The factor could then be used to calculate the relative amount of the final product N-glycoform for each reaction in the following experiments.
Measurements of KM and Vmax for SCT-oxa. Serial dilutions with a total volume of 10 μL were prepared with a gradient of SCT-oxa concentrations and a constant deglycosylated antibody concentration mixed in PBS, pH 7.4. Each reaction was initiated by adding 1μμL, of Endo-S/S2 mutants with a concentration of 0.1 mg/M1 and the reaction was conducted at 30° C. The concentrations of SCT-oxa were within a range from 6.25 μM to 400 μM. For each reaction, three aliquots were taken at t=1, 2 and 3 min and immediately quenched in 100 μL 0.1% formic acid. The quenched reaction samples were then characterized by ESI-MS, and the concentration of product in each mixture was calculated using the normalization factor, as shown above. […] The KM and Vmax were measured by fitting the initial velocity against the SCT-oxa concentration using the GraphPad Prism7 program. The experiments were conducts in triplicate to determine the error in these measurements.

[2] = system: deglycosylated rituximab; assay: Kinetic measurements (KM, Vmax) of Endo-S/Endo-S2 mutants for deglycosylated rituximab; details: Endo-S mutants, acceptor substrate deglycosylated rituximab, SCT-Oxa fixed at 400 μM
Description: as §1
Measurements of KM and Vmax for SCT-oxa. Serial dilutions with a total volume of 10 μL were prepared with a gradient of SCT-oxa concentrations and a constant deglycosylated antibody concentration mixed in PBS, pH 7.4. Each reaction was initiated by adding 1μμL, of Endo-S/S2 mutants with a concentration of 0.1 mg/M1 and the reaction was conducted at 30° C. The concentrations of SCT-oxa were within a range from 6.25 μM to 400 μM. For each reaction, three aliquots were taken at t=1, 2 and 3 min and immediately quenched in 100 μL 0.1% formic acid. The quenched reaction samples were then characterized by ESI-MS, and the concentration of product in each mixture was calculated using the normalization factor, as shown above. A linear progression curve was confirmed for each reaction by sampling at multiple early time points and plotting them in the same graph, which emphasized that the V0 measured indeed represents the initial rate of each reaction. The KM and Vmax were measured by fitting the initial velocity against the SCT-oxa concentration using the GraphPad Prism7 program. The experiments were conducts in triplicate to determine the error in these measurements.
The KM and Vmax values of both Endo-S and Endo-S2 mutants for the deglycosylated antibody substrate were measured in a similar fashion as to those for SCT-Oxa. In the serial reactions, the concentrations of antibody range from 0.313 μM to 20 μM, whereas the SCT-Oxa concentration was fixed at 400 μM. A similar control reaction was also performed for each concentration to monitor the non-enzymatic side reactions.

[3] = system: deglycosylated rituximab; assay: Transglycosylation activity assay of Endo-S and D233 mutants, LC-ESI-MS; details: for Transglycosylation Activity: deglycosylated rituximab 10.0 mg/mL, SCT-Oxa 1.38 mM (20 eq), enzyme 0.01 mg/mL, PBS pH 7.4, 30° C., duplicate; for Transglycosylation/Hydrolysis Ratio T/H: ratio of transglycosylation to hydrolysis activity, Table 1
Experimental: (§2) The hydrolytic activity of the mutants generated was evaluated using rituximab as the substrate, and the transglycosylation activity was evaluated using the sugar oxazoline and the deglycosylated rituximab as the donor and acceptor substrates, respectively (Scheme 1).
(§3) The LC-MS characterization of different antibody glycoforms was conducted on an Exactive Plus Orbitrap instrument (Thermo Scientific). The intact antibody sample was analyzed with a Waters XBridge™ BEH300 C4 column (3.5 μm, 2.1×50 mm). The program includes a 9 min linear gradient of 5-90% MeCN containing 0.1% formic acid at a flow rate of 0.4 mL/min. The original mass data were processed through deconvolution and integration through MagTran Software (Amgen).
as §1
(§4) The hydrolytic activity of each Endo-S mutants and the wild-type (0.01 mg/mL) was assayed in PBS (pH 7.4, 10 μl) at 30° C. with synthetic biantennary sialo-complex-type rituximab (1.0 mg/mL, 6.9 μM) as the starting material. Each reaction was terminated at 5 min and an aliquot was taken from the reaction mixture and dissolved in 0.1% formic acid. The relative quantity of the hydrolysis product was calculated through deconvolution and integration of the selected MS peaks. The experimental details of product quantification using LC-MS are illustrated below. The transglycosylation activity of Endo-S was measured in a similar fashion: deglycosylated Rituximab (10.0 mg/mL, 69 μM) was incubated with SCT-Oxa (1.38 mM, 20 eq) under catalysis of Endo-S enzymes (0.01 mg/mL) under the same condition as hydrolysis. The transglycosylation product SCT-Rituximab was analyzed as mentioned above. Both functional assays were repeated twice for each mutant and the wild-type, and the average activity was recorded

[4] = system: rituximab; assay: Hydrolysis activity assay of Endo-S and D233 mutants, LC-ESI-MS; details: rituximab 1.0 mg/mL as substrate, enzyme 0.01 mg/mL, PBS pH 7.4, 30° C., 5 min, duplicate
Experimental: as §2, §3, §1, §4

Molecule | Km [1] [µM] | kcat [1] [s⁻¹] | Km [2] [µM] | Transglycosylation Activity [3] | Transglycosylation/Hydrolysis Ratio T/H [3] | Specific Hydrolysis Activity [4]
B1 | 87.9 ± 10.1 | 0.0223 ± 0.00317 | > 200 | 1.06 100*(μmol/min/mg) | 17.67 | 0.06 100*(μmol/min/mg)
B2 | – | – | – | 0.98 100*(μmol/min/mg) | 19.60 | 0.05 100*(μmol/min/mg)
